“And” between values parts separate entries of the source, which are not always exact repeats. Equal entries are not always repeated.
Experiments:
[1] = target: Insulin-degrading enzyme wild type (rat); assay: SEC with static light scattering (SLS); 200 μg injected into a Superdex G-200 column, working buffer, 0.5 ml/min; 90° light scattering with UV or refractive index; calibrated with BSA
[2] = target: Proteolytically inactive recombinant insulin-degrading enzyme with Glu111 replaced by Gln (rat); assay: as above

Substance | stoichiometry N [1] | stoichiometry N [2]
Insulin-degrading enzyme wild type | 4 and 2 | 
Proteolytically inactive recombinant insulin-degrading enzyme with Glu111 replaced by Gln |  | 2 and 4

Source: article PMC3623905
